Target: T1, full-length RADX, wild type, tagged with mCherry-FLAG or with GFP-HA (human, UniProt Q6NSI4 1-855)
T1 construct: RADX (cxorf57), human, full length; Two differently tagged copies of the same protein, written as one molecule; The GFP-HA copy is the one captured on GFP beads in the tests with purified proteins; The mCherry-FLAG copy is the one fished out there, and is the bait of the FLAG co-IP from lysate; also called mCherry-FLAG-RADX; m-Cherry-FLAG-RADX; source: HEK293T, transfected, in lysate; HEK293T, …
Experiment: co-IP; purified mCherry-FLAG proteins mixed with purified GFP-HA-RADX and captured on GFP-trap magnetic agarose beads, 1 h at 4 °C; 50 mM Tris pH 7.5, 250 mM NaCl, 10% glycerol, 0.05% NP-40; immunoblot
Details: both partners purified

| Binder | binding result |
| --- | --- |
| mCherry-FLAG-RADX E842K (natural protein, human, UniProt Q6NSI4 1-855, looked up, RADX, human, full length with one point mutation; also called E842K RADX; pTM156; source: HEK293T, purified (anti-FLAG M2 beads, 3x FLAG peptide, Superdex 200)) MSGESGQPEAGPSHAGLDWPNPERNRAGVPGGVIRRAGSQGPRSWIQKVLEQIMDSPRQCVTPSEVVPVTVLAVQRYLLEDEPRDTVPKPPLYCYDVTISDGVYQEKCYLDPSLNSLVYQNILKVGIQMRISRVSCLYNEKRIGQGILCIDNVHCGETSDSISLETPFRNRAHQEKPERPLRGGKSHYLALWNNEDPYGDIWLTDKQPEEHNFSDTKIISLSHLEMTWTNRRNFPALLVRILHKSKLRYYGKPDKKMIEPYQTFLEVADSSGTVSVIMWNALCPEWYKSLRVGLVLLLQDYSVKKSYPFRIQPVPVDPQIKLISTMEICLNLRDPPTNIIIIPEKQVKPEWRLPKLNHRFTTRSELDDMPENCICDVIGLLVFVGRVQRSKKKENREDFWSYRWIHIADGTSEQPFIVELFSTSQPEIFENIYPMAYFVCTQLKVVRNDNQVPKLLYLTTTNESGVFITGHRGQPYTYDAKVKNFIQWIRTKSDSGEQKNMVIGGYYPYPPVPETFSKYSSSIKVESLLTAISEVRKEIEDLQYREQKRIAIQGIITAIKYIPHSSATESASASETLRNANRPSTSQAARVEIQERNGKRHQDDEPVNSQYFQTTSTNLSLSNKIRILQGPHANPVAVPQPGASVQTKGIKPGMPSIFNRRANINANLQGKARKTISDRWESQLWREKKFGLIDHLHYSRVYPESIPRKFMFEHRKFLSDQYNSQPAKYVPPEGRPPKLDDFKSARSLGHFEVTILGLNHEIAIDVAFLPMYCPEDIRTSQIDTLLTSMNYSCAYPQDTTGNDRLPGPRAVAGDIIKAATELDRVHIVGILDICNLGNNKVKVYLHKIYSPENTS | binds |
| mCherry-FLAG-RADX K847D (natural protein, human, UniProt Q6NSI4 1-855, looked up, RADX, human, full length with one point mutation; also called K847D RADX; pTM157; source: HEK293T, purified (anti-FLAG M2 beads, 3x FLAG peptide, Superdex 200)) MSGESGQPEAGPSHAGLDWPNPERNRAGVPGGVIRRAGSQGPRSWIQKVLEQIMDSPRQCVTPSEVVPVTVLAVQRYLLEDEPRDTVPKPPLYCYDVTISDGVYQEKCYLDPSLNSLVYQNILKVGIQMRISRVSCLYNEKRIGQGILCIDNVHCGETSDSISLETPFRNRAHQEKPERPLRGGKSHYLALWNNEDPYGDIWLTDKQPEEHNFSDTKIISLSHLEMTWTNRRNFPALLVRILHKSKLRYYGKPDKKMIEPYQTFLEVADSSGTVSVIMWNALCPEWYKSLRVGLVLLLQDYSVKKSYPFRIQPVPVDPQIKLISTMEICLNLRDPPTNIIIIPEKQVKPEWRLPKLNHRFTTRSELDDMPENCICDVIGLLVFVGRVQRSKKKENREDFWSYRWIHIADGTSEQPFIVELFSTSQPEIFENIYPMAYFVCTQLKVVRNDNQVPKLLYLTTTNESGVFITGHRGQPYTYDAKVKNFIQWIRTKSDSGEQKNMVIGGYYPYPPVPETFSKYSSSIKVESLLTAISEVRKEIEDLQYREQKRIAIQGIITAIKYIPHSSATESASASETLRNANRPSTSQAARVEIQERNGKRHQDDEPVNSQYFQTTSTNLSLSNKIRILQGPHANPVAVPQPGASVQTKGIKPGMPSIFNRRANINANLQGKARKTISDRWESQLWREKKFGLIDHLHYSRVYPESIPRKFMFEHRKFLSDQYNSQPAKYVPPEGRPPKLDDFKSARSLGHFEVTILGLNHEIAIDVAFLPMYCPEDIRTSQIDTLLTSMNYSCAYPQDTTGNDRLPGPRAVAGDIIKAATELDRVHIVGILDICNLGNNKVEVYLHDIYSPENTS | binds |
| mCherry-FLAG-RADX K840D (natural protein, human, UniProt Q6NSI4 1-855, looked up, RADX, human, full length with one point mutation; also called pTM155; source: HEK293T, purified (anti-FLAG M2 beads, 3x FLAG peptide, Superdex 200)) MSGESGQPEAGPSHAGLDWPNPERNRAGVPGGVIRRAGSQGPRSWIQKVLEQIMDSPRQCVTPSEVVPVTVLAVQRYLLEDEPRDTVPKPPLYCYDVTISDGVYQEKCYLDPSLNSLVYQNILKVGIQMRISRVSCLYNEKRIGQGILCIDNVHCGETSDSISLETPFRNRAHQEKPERPLRGGKSHYLALWNNEDPYGDIWLTDKQPEEHNFSDTKIISLSHLEMTWTNRRNFPALLVRILHKSKLRYYGKPDKKMIEPYQTFLEVADSSGTVSVIMWNALCPEWYKSLRVGLVLLLQDYSVKKSYPFRIQPVPVDPQIKLISTMEICLNLRDPPTNIIIIPEKQVKPEWRLPKLNHRFTTRSELDDMPENCICDVIGLLVFVGRVQRSKKKENREDFWSYRWIHIADGTSEQPFIVELFSTSQPEIFENIYPMAYFVCTQLKVVRNDNQVPKLLYLTTTNESGVFITGHRGQPYTYDAKVKNFIQWIRTKSDSGEQKNMVIGGYYPYPPVPETFSKYSSSIKVESLLTAISEVRKEIEDLQYREQKRIAIQGIITAIKYIPHSSATESASASETLRNANRPSTSQAARVEIQERNGKRHQDDEPVNSQYFQTTSTNLSLSNKIRILQGPHANPVAVPQPGASVQTKGIKPGMPSIFNRRANINANLQGKARKTISDRWESQLWREKKFGLIDHLHYSRVYPESIPRKFMFEHRKFLSDQYNSQPAKYVPPEGRPPKLDDFKSARSLGHFEVTILGLNHEIAIDVAFLPMYCPEDIRTSQIDTLLTSMNYSCAYPQDTTGNDRLPGPRAVAGDIIKAATELDRVHIVGILDICNLGNNDVEVYLHKIYSPENTS | binds |
| mCherry-FLAG-RADX KVEV to DVKV (residues 840–843) (natural protein, human, UniProt Q6NSI4 1-855, looked up, The results print residues 840 to 844, the methods 840–843; also called pTM113; source: HEK293T, purified (anti-FLAG M2 beads, 3x FLAG peptide, Superdex 200)) MSGESGQPEAGPSHAGLDWPNPERNRAGVPGGVIRRAGSQGPRSWIQKVLEQIMDSPRQCVTPSEVVPVTVLAVQRYLLEDEPRDTVPKPPLYCYDVTISDGVYQEKCYLDPSLNSLVYQNILKVGIQMRISRVSCLYNEKRIGQGILCIDNVHCGETSDSISLETPFRNRAHQEKPERPLRGGKSHYLALWNNEDPYGDIWLTDKQPEEHNFSDTKIISLSHLEMTWTNRRNFPALLVRILHKSKLRYYGKPDKKMIEPYQTFLEVADSSGTVSVIMWNALCPEWYKSLRVGLVLLLQDYSVKKSYPFRIQPVPVDPQIKLISTMEICLNLRDPPTNIIIIPEKQVKPEWRLPKLNHRFTTRSELDDMPENCICDVIGLLVFVGRVQRSKKKENREDFWSYRWIHIADGTSEQPFIVELFSTSQPEIFENIYPMAYFVCTQLKVVRNDNQVPKLLYLTTTNESGVFITGHRGQPYTYDAKVKNFIQWIRTKSDSGEQKNMVIGGYYPYPPVPETFSKYSSSIKVESLLTAISEVRKEIEDLQYREQKRIAIQGIITAIKYIPHSSATESASASETLRNANRPSTSQAARVEIQERNGKRHQDDEPVNSQYFQTTSTNLSLSNKIRILQGPHANPVAVPQPGASVQTKGIKPGMPSIFNRRANINANLQGKARKTISDRWESQLWREKKFGLIDHLHYSRVYPESIPRKFMFEHRKFLSDQYNSQPAKYVPPEGRPPKLDDFKSARSLGHFEVTILGLNHEIAIDVAFLPMYCPEDIRTSQIDTLLTSMNYSCAYPQDTTGNDRLPGPRAVAGDIIKAATELDRVHIVGILDICNLGNNDVKVYLHKIYSPENTS | binds |
| mCherry-FLAG-RADX KIY to DIA (residues 847–849) (natural protein, human, UniProt Q6NSI4 1-855, looked up, also called pTM114; source: HEK293T, purified (anti-FLAG M2 beads, 3x FLAG peptide, Superdex 200)) MSGESGQPEAGPSHAGLDWPNPERNRAGVPGGVIRRAGSQGPRSWIQKVLEQIMDSPRQCVTPSEVVPVTVLAVQRYLLEDEPRDTVPKPPLYCYDVTISDGVYQEKCYLDPSLNSLVYQNILKVGIQMRISRVSCLYNEKRIGQGILCIDNVHCGETSDSISLETPFRNRAHQEKPERPLRGGKSHYLALWNNEDPYGDIWLTDKQPEEHNFSDTKIISLSHLEMTWTNRRNFPALLVRILHKSKLRYYGKPDKKMIEPYQTFLEVADSSGTVSVIMWNALCPEWYKSLRVGLVLLLQDYSVKKSYPFRIQPVPVDPQIKLISTMEICLNLRDPPTNIIIIPEKQVKPEWRLPKLNHRFTTRSELDDMPENCICDVIGLLVFVGRVQRSKKKENREDFWSYRWIHIADGTSEQPFIVELFSTSQPEIFENIYPMAYFVCTQLKVVRNDNQVPKLLYLTTTNESGVFITGHRGQPYTYDAKVKNFIQWIRTKSDSGEQKNMVIGGYYPYPPVPETFSKYSSSIKVESLLTAISEVRKEIEDLQYREQKRIAIQGIITAIKYIPHSSATESASASETLRNANRPSTSQAARVEIQERNGKRHQDDEPVNSQYFQTTSTNLSLSNKIRILQGPHANPVAVPQPGASVQTKGIKPGMPSIFNRRANINANLQGKARKTISDRWESQLWREKKFGLIDHLHYSRVYPESIPRKFMFEHRKFLSDQYNSQPAKYVPPEGRPPKLDDFKSARSLGHFEVTILGLNHEIAIDVAFLPMYCPEDIRTSQIDTLLTSMNYSCAYPQDTTGNDRLPGPRAVAGDIIKAATELDRVHIVGILDICNLGNNKVEVYLHDIASPENTS | binds |
| mCherry-FLAG-RADX NHEI to AAAA (residues 759–762) (natural protein, human, UniProt Q6NSI4 1-855, looked up, also called pTM109; source: HEK293T, purified (anti-FLAG M2 beads, 3x FLAG peptide, Superdex 200)) MSGESGQPEAGPSHAGLDWPNPERNRAGVPGGVIRRAGSQGPRSWIQKVLEQIMDSPRQCVTPSEVVPVTVLAVQRYLLEDEPRDTVPKPPLYCYDVTISDGVYQEKCYLDPSLNSLVYQNILKVGIQMRISRVSCLYNEKRIGQGILCIDNVHCGETSDSISLETPFRNRAHQEKPERPLRGGKSHYLALWNNEDPYGDIWLTDKQPEEHNFSDTKIISLSHLEMTWTNRRNFPALLVRILHKSKLRYYGKPDKKMIEPYQTFLEVADSSGTVSVIMWNALCPEWYKSLRVGLVLLLQDYSVKKSYPFRIQPVPVDPQIKLISTMEICLNLRDPPTNIIIIPEKQVKPEWRLPKLNHRFTTRSELDDMPENCICDVIGLLVFVGRVQRSKKKENREDFWSYRWIHIADGTSEQPFIVELFSTSQPEIFENIYPMAYFVCTQLKVVRNDNQVPKLLYLTTTNESGVFITGHRGQPYTYDAKVKNFIQWIRTKSDSGEQKNMVIGGYYPYPPVPETFSKYSSSIKVESLLTAISEVRKEIEDLQYREQKRIAIQGIITAIKYIPHSSATESASASETLRNANRPSTSQAARVEIQERNGKRHQDDEPVNSQYFQTTSTNLSLSNKIRILQGPHANPVAVPQPGASVQTKGIKPGMPSIFNRRANINANLQGKARKTISDRWESQLWREKKFGLIDHLHYSRVYPESIPRKFMFEHRKFLSDQYNSQPAKYVPPEGRPPKLDDFKSARSLGHFEVTILGLAAAAAIDVAFLPMYCPEDIRTSQIDTLLTSMNYSCAYPQDTTGNDRLPGPRAVAGDIIKAATELDRVHIVGILDICNLGNNKVEVYLHKIYSPENTS | binds |
